Reference: patent US20050025760A1 (KEIO UNIVERSITY, published 2005)

Experiments:
Dsg3-M7 = target: T1, Dsg3-M7 (human, UniProt P32926 50-615, V3I; K7A; P8A); assay: immunoprecipitation of point-mutated molecules (FIG. 5)
T1 construct: extracellular domain; also called hDsg3-M7
T1 sequence (looked up): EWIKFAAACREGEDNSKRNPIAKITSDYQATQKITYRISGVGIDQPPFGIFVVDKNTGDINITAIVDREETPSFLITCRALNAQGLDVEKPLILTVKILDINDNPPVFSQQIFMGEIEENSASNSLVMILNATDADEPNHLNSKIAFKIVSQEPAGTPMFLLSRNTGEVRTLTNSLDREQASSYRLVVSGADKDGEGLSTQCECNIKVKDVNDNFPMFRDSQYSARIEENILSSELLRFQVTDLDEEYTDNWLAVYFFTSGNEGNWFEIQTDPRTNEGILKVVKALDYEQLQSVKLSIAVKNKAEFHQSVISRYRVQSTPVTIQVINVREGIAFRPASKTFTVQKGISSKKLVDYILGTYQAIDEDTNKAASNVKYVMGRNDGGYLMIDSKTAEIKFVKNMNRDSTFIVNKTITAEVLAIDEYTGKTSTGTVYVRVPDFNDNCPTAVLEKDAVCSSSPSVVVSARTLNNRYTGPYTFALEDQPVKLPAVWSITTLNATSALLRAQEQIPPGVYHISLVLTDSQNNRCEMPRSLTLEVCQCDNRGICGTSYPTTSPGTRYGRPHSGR

[1] = target: T2, recombinant protein mouse Dsg1-His (mouse, UniProt Q61495 50-564, limits assumed); assay: ELISA on recombinant mouse Dsg1-His
T2 construct: not shown: His tag
T2 sequence (looked up): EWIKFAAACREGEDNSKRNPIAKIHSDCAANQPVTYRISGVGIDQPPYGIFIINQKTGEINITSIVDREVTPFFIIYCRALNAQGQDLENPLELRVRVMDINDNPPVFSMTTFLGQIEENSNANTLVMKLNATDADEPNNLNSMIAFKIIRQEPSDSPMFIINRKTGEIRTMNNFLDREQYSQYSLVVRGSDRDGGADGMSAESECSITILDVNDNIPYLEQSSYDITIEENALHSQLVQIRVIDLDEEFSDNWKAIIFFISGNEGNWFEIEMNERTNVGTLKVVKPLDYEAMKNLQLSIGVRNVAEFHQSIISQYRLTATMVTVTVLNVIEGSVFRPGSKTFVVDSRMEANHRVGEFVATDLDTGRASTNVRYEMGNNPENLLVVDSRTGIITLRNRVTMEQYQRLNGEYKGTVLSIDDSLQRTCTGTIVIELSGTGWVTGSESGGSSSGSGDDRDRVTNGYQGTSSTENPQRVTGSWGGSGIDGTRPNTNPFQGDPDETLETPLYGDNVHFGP
Excerpt: The baculovirus vectors, pEVmod-Dsg3-His and pEVmod-Dsg1-His, pEVmod-mouse Dsg3-His and pEVmod-mouse Dsg1 -His, that were constructed according to the method as described previously (J. Immunol. 159, 2010-2017, 1997) were used. These recombinant baculoviruses were infected to insect cells, High Five (Invitrogen Corporation), then the recombinant protein human Dsg3-His and Dsg1-His, recombinant protein mouse Dsg3-His and Dsg1-His were collected from the culture media, respectively. In addition, purification of these recombinant proteins was conducted using Ni-NTA column. These purified recombinant proteins were coated on ELISA (Enzyme Linked Immunosorbent Assay) plates, respectively, 50 μl each of the culture supernatant of the anti-Dsg3 monoclonal antibody-producing hybridoma was added to each well, and ELISA was practiced according to the method as previously described (J Clin Invest 105, 625-631, 2000). PV mouse model 1 serum with moderate degree of antibody titer was selected as a positive control, and 1 serum of normal mouse serum was selected as a negative control. Absorbance was determined at wavelength 450 nm (Bio-rad, Hercules, Calif. USA), and the index was shown by the following formula. Index={OD(specimen)−OD(negative control)}/{OD(positive control)−OD(negative control)}×100 A-2 (Living Cell Staining using Culture Mouse Keratinocyte PAM 212)

binding result (Dsg3-M7): no binding | binding result [1]: no binding
B1: anti-Dsg3 monoclonal antibody AK23 (antibody, mouse IgG1, V domains shown)
VH: QVQLQQSGTELVKPGASVKLSCKSSGYTFTSYWINWVKQRPGQGLEWIGNINPSNGGINYNEKFKSKATLTVDKSSSTAYMQLKSLTSEDSAVYYCARGGYDGYPWGQGTTVTVS
VL: DIQMTQSPKFLLVSAGDRVTITCKASQSVSYDVAWYQQKPGQSPKLLISYASNRYTGVPDRFTGSGYGSDFTFTISTVQTEDLAVYFCQQDYSSPWTFGGGTKLELKR
notes: Mouse IgG1 kappa hybridoma antibody
